In the nanobody polyreactivity screen of Harvey et al. (2022):

Assay: yeast display, Sf9 membrane polyspecificity reagent, FACS + sequencing; frameworks hold sequencing errors
In short: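 Nanobodies came from a synthetic yeast display library in Saccharomyces cerevisiae BJ5465, induced with galactose for 36–48 hours and stained for 1 hour at 4 °C with 10% biotinylated, detergent-solubilized Sf9 membrane reagent. Cells were enriched on streptavidin microbeads and then FACS-sorted, with low and high (top ~1%) gates set on anti-HA fluorescence for expression and streptavidin fluorescence for reagent binding. Each polyreactivity label reflects the gate a clone came from. Genes were amplified by colony PCR, sequenced by MiSeq 2 × 250 and filtered by CDR length.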

QVQLVESGGGLVQAGGSLRLSCAASGYTFPSNAMGWYRQAPGKERELVAAISSGGRTNYADSVKGRFTISRDNAKNTVYLQMNSLKPEDTGVYYCNADGGPCYPRAYDYWGQGTQVTVSS
polyreactivity (PSR sort gate): low polyreactivity

QVQLVESGGGLVQAGGSLRLSCAASGRTFWYYTMGWYRQAPGKERELVAANTSVGSTYYADSVKGRFTISRDNAKNTVYLQMNSLKPEDTAVYYCATLYSYTHQSFDHWGQGTQVTVSS
polyreactivity (PSR sort gate): high polyreactivity

QVQLVESGGGLVQVGGSLRLSCAASGFTFYDYAMGWYRQAPGKERELVAAMSRGGSTYYADSVKGRFTISRDNAKNTVYLQMNSLKPEDTAVYYCNARPTRIYHGMGYWGQGTQVTVSW
polyreactivity (PSR sort gate): low polyreactivity

QVQLVESGGGLVQAGGSLRLSCASSGYIFRSYAMGWYRQAPGKERELVATISWIGGGTSYADSVKGRFTISRDNAKNTVYLQMNSLKPEDTAVYYCAAGPWAYGRRHAYYSRSFDYWGQGTQVTVSS
polyreactivity (PSR sort gate): high polyreactivity

QVQLVESGGGLVQAGGSLRLSCAASGSIFGYNAMGWYRQAPGKERELVAAISRSGGRTYYADSVKGRFTISRDNAKNTVYLQMNSLKPEDTAVYDCAAPVWRYYRGKTFDYWGQGTQVTVSS
polyreactivity (PSR sort gate): high polyreactivity

QVQLVESGGGLVQAGGSLRLSCAACGITFPTNMGWYRQAPGKERELVAAIRLSGGSTSYADSVKGRFTISRDNAKNSVYLQMTSLKPEDTAVSSCAAGGYPGGEDYWGQGTQVTVSS
polyreactivity (PSR sort gate): low polyreactivity

QVQLVESGGGLVQAGGSLRLSCAASGRIFTRNAMGWYRQAPGKERELVAAISRSGGSTYYADSVKGRFTISRDNAKNTVYLQMNSLKPEDTAVYYCAKRGYDNYPFYYWGQGTQVTVSS
polyreactivity (PSR sort gate): high polyreactivity

QVQLVESGGGLVQAGGSLRLSCAASGRIFYWNVMGWYRQAPGKERELVAAISSSGASTSYADSEKGRFTISRDNEKNTVYLQMNSLKPEVTAGYYCDARTRRNYRQYNYWGQATQVTVSS
polyreactivity (PSR sort gate): high polyreactivity

QVQLVESGGGLVQAGGSHRLSCAASGSTFTKNAMGWYRQAPGKERELVATISSGGYTNYADSVKGRFTISRDNAKNSVYLQMNSLKPEDTAVYYCNAVYRYRTRREYGYWGQGTQVTVSS
polyreactivity (PSR sort gate): high polyreactivity

QVQLVESGGGLVQAGGSLRVSCAASGRIIGQYAMGWSRQAPGKEWELVASISRRGGSTYYAASVKGRFTISRDNAKKTVYLQMYSLKPEDTAVYYCAKERTYGHYDYWGQGTQVTVSS
polyreactivity (PSR sort gate): high polyreactivity

QVQLVESWGGLVQAGGSLRLSSAASGSIFYHYAMGWYRQAPGKERELVAAISWRGASTYYADSVKGRFTISRDNAKNTVYLQMNSLKPEDTAVYYCARLSSSHPLYRDDYWGQGTQVTLSS
polyreactivity (PSR sort gate): high polyreactivity

QVQLLESRGGLVQAGGSLRLSCAASGRNFGRYTMGWYRQAPGKERELVAAISARGGSTYYADSVKGRFTISRDNAKNTVYLQMNSLKPEDTAVYYCNTVRVHGFPIDRIYDYWGQGTQVTVSS
polyreactivity (PSR sort gate): high polyreactivity

QVQRVESGGGLVQAGGRLRLTCAASGSTFYVNAMVWYRQAPGKERELVAGISFSDGSTYYADSVKGRFTISRDNAKNTVYLQMNSLKPEDTAVYYCATVGAFDIYYGYGYWGQGTQVTVSS
polyreactivity (PSR sort gate): low polyreactivity

QVQLVESGGGLVQAGGSLRLSCADSGSTFDYPMGWYRQAPGKERELVASITFSTGSTYYADSVKGRFTISRDNAKNTVYLQMNSLKPEDTAVYYCATGVDTYSLTVEHDSWVQGTQVTVSS
polyreactivity (PSR sort gate): low polyreactivity

QVQLVESGGGLVQAGGSLRLSCAASGSIFHRNAMGWYRQAPGKERELVATISSSTGSTNYADSVKGRFTISRDNAKNTVYLQMNSLKPEDTAVYYCAAAPHRHSWYYTRHPYFGMDYWGQGTQVTVSS
polyreactivity (PSR sort gate): low polyreactivity

QVQLVESGGGLVQAGGSLRLSCAASGITFRFYAMGWYRPAPGKEREFVAAISSRGGRTYYADSVKGRFTISRDNATNTVYLQMNSLKPEDTAVYYCAADFYYRTVATVTSVARYDYWGQGTQVTVSS
polyreactivity (PSR sort gate): high polyreactivity

QVQLVESGGGLVQAGGSLRLSCAASGSIFAPYAMGWYRQAPGKERELVAAISTGGRTHYADSVKGRFTISRDNAKNTVYLHMNSLKPEDTAVYYCAAARPTAGVIRPHYYWGQGTQVTVSS
polyreactivity (PSR sort gate): high polyreactivity

QVQLVESGGGLVQAGGSLRLSCAASGSIFAPYAMGWYRQAPGKEREVVAAITSGVGSTYYADSVKGRFTISRDNAKNTVYLQMNSLKPEDTAVYYCAADSSYLTYWEYDYWGQGSQVTVSS
polyreactivity (PSR sort gate): low polyreactivity

QVQLVESGGGIVQAGGSLRLSCAASGRILSRYAMGWYRQAPGKESDLVADISSGGRTHYADSVKGRFTISRDNAKNTVYFQMNSLKPEDSAVYYCAKDYTPYSRRLNSGGYYYWGQGTQVTVSS
polyreactivity (PSR sort gate): high polyreactivity

QVQLVESGGGLVQAGGSLRLSCAASGRILHIYAMGWYRQAPGKERELVAAISWIGTSTYYADSVKGRFTISRDNAMNTVFLQMNSLKPEDTAVYYCAATGPRMYYWGQGTQVTVSS
polyreactivity (PSR sort gate): high polyreactivity

QVQLLESGGGLVQAGGSHRLSCASSGRTFSRYAMGWYRQAPGKERELVAAISYSGGSTYADSVKGRFTISRDNAKNTVYLQMIRLKPEDTAVYYCAAEKYVYWFSYQYGYWGQGTQVSVSS
polyreactivity (PSR sort gate): high polyreactivity

QVQLVESGGGLVQAGGSLRLSCAASGSIFGYYAMGWYRQAPGKERELVAAITTRGGRTYYADSVKGRFTISRDNAKNTVYLQMNSLKPEDTAVYYCAARTGRGRYDYWGQGTQVTVSS
polyreactivity (PSR sort gate): high polyreactivity

QVQLVESGGGLGQAGGSLRLSCAASGRIFYRYVMGWYRPAPGKERELVAAITTSGGRTYYADSVKGRFTISRDNAKNTVYLQLNSLKPEDTAVYDCAAASPTPVYWSGRDYYYWGQGTQVTVSS
polyreactivity (PSR sort gate): high polyreactivity

QVQLVESGGGLVQAGGSLRLSCAASGGIFRGYAMGWYRQAPGKERELVAAISSRDGRTYYADSVKGRFTISRDNEKNTVYLQMNSLKPEDTAVYYCAASSFNNGHRYDYWGQGTQVTVSS
polyreactivity (PSR sort gate): high polyreactivity

QVQLVESGGGLVQAGGSLRLSCAASGSIFGKYAMGWYRQAPGKERELVAAISWSGGSTYYADSVKGRFTISRDNAKNTVYLQMNSLKPEDTAVYYCAKRRVYYGSRYNYWGQGTQVTVSS
polyreactivity (PSR sort gate): high polyreactivity

QVQLVESGGGLVQAGGSLRLSCAASGITFYKYTMGWYRQAPGKERELVAAISVRGGRTYYADSVKGRFTISRDYAKNTVDLQMNSLKPEDTAVYYCAAGSQPGRKYYYWGQGTQVTVSS
polyreactivity (PSR sort gate): high polyreactivity

QVQLVESGGGLVQAGGSLRLSCAASGFTFDVYTMGWYRQAPGKEREFVAAISGSGGSTYYADSVKGRFTISRDNAKNTVYLQMNSLKPEDTAVYYCNAGLSRVSHRHRSHSLQGYDYWGQGTQVTVSS
polyreactivity (PSR sort gate): low polyreactivity

QVQLVESGGGLVQAGGSLRLSCAASGSIFVINAMGWYRQAPGKERELVAAIDWSGDSTYYADSVKGRFTISRDNAKNTVYLQMNSLKPEDTAVYYCAADLDSRGTYGRYEYWGQGTQVTVSS
polyreactivity (PSR sort gate): low polyreactivity

QVQLVESGGGLVQAGGSLRLSCAASGFTFDYYAMGWYRQAPGKERELVAAINYSGGSTYYADSVKGRFTISRDNAKNTVYLQMNSLKPEDTAVYYCNAVGYSVFRRYNYWGQGTQVTVSS
polyreactivity (PSR sort gate): high polyreactivity

QVQLVESGGGLDQAGGSLRLSCAASGRTFAVYAMGWYIQAPGKERELVASIRLSGTRTYYADSVKGRFTISRDHAKNTVYFQMNSLKPEDTAVYYCAAKGTYSRGTFNGYRYDYWGQGTQVTVSS
polyreactivity (PSR sort gate): high polyreactivity

QVQLVESGGGLVQAGGSLRLSCAASGIIFSWYAMGWYRQAPGKERELVASITASGGSTYYADSVKGRFTISRDTAKNTVSFQMHSLKPEDTAVYYCAVRYGHRSFASVYVEYDYWGQGTQVTVSS
polyreactivity (PSR sort gate): low polyreactivity
